Legend:
MMP-2 = biological target: T1, MMP-2 (Mus musculus, UniProt P33434); experiment: In vitro protein binding assay (CLU-His pull-down, gelatin zymography), MMP-2; conditions: 150 mM NaCl binding buffer
T1 construct: purchased R&D Systems
Description: A mixture of MMP-2, MMP-9, and C-terminal truncated MMP-9 (9-ΔC) was incubated with His-tagged CLU, used in a pull-down assay and resolved on a gelatin zymography gel. The input and bound samples were loaded in a series of dilution.
Next, we tested the interaction of secreted CLU using mouse recombinant proteins. We used purified recombinant proteins of MMP-2, MMP-9, and CLU that were secreted from a mouse myeloma cell line (NSO). All of the proteins were purchased from R&D Systems. A mixture of MMP-2, MMP-9, and C-terminal truncated MMP-9 (9-ΔC) was incubated with His-tagged CLU, and subjected to the pull-down assay, using 150 mM NaCl-containing binding buffer and anti-His tag antibody resins. Portions of the input samples (Input) and proteins bound to the antibody (Bound) were resolved on the gelatin zymography gel.
The recombinant CLU contains a (His)6-Tag at the C-terminus of the protein, which was used for pull-down experiments with anti-His tag antibody beads. It was previously reported that CLU also binds to MT6-MMP/mmp-25 and that the hemopexin domain in the MMP C-terminal region is required for their interaction (Matsuda et al., 2003). To use as an internal control for the binding experiment, we removed part of MMP-9 (MMP-9-ΔC) by promoting self-processing by APMA (4-aminophenylmercuric acetate) treatment. […]

[1] = biological target: T2, catalytic domain of human MMP-9 (residue 112-445) (Homo sapiens, UniProt P14780); experiment: MMP inhibition assay (FRET peptide substrate), recombinant MMP-9 catalytic domain; assay type: biochemical; conditions: CLU 50 μg/ml (0.63 μM), RT 0.3 h
T2 construct: The recombinant catalytic domain of human MMP-9 (residue 112-445) was purchased from ProtEra; purchased ProtEra
T2 sequence (P14780 112-445): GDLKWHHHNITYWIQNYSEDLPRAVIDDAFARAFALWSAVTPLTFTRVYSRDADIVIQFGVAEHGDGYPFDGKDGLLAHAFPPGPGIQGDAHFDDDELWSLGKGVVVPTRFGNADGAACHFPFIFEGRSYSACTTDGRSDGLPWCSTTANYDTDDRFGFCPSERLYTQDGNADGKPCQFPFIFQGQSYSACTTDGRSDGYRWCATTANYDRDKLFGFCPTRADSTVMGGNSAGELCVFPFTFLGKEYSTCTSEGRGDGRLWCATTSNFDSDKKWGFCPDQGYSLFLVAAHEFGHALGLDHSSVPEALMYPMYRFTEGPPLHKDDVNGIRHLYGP
Description: Recombinant MMP-9 catalytic domain (A) or APMA-activated MMP-7 (B) was incubated with PBS, CLU (50 μg/ml or 0.63 μM), SB3-CT (2 μM), or BSA (50 μg/ml), and MMP FRET substrate at RT for 0.3 h. RFU in PBS samples was considered 100%. Each reaction was performed in triplicate. Standard errors were depicted as a bar in each graph. MMPs were mixed with CLD in TSCB buffer, 50 mM Tris-HCI, pH, 7.5, 150 mM NaCl, 5 mM CaCl2, 0.002% Brij35 (or otherwise indicated concentration) 30 min prior to substrate addition, and incubated for 3 h at RT in the presence or absence of 0.02 mM p-aminophenylmercuric acetate (APMA). MMP activity was measured using a 5-FAM/QXL520 fluorescence resonance energy transfer (FRET) peptide as a substrate (EXlEm=490 nm/520 nm) (AnaSpec, Fremont, Calif.), according to the manufacturer's protocol. Relative fluorescence unit (RFU) was obtained by subtracting the values of APMA- or enzyme-omitted reactions from those of test samples, and then considering the fluorescence unit of a PBS (vehicle) sample as 100%. Enzyme reactions were performed in black 96-well plate, containing combinations of 10 ng, 5 ng, 5 ng, 10 ng, 2.5 μg, 2.5 μg of MMP-2, MMP-7, catalytic domain of MMP-9, MMP-9, CCLU, and/or BSA, respectively, in 50 μl reaction volume. As MMP substrates (0.4 μM), 520 MMP FRET substrate […] […] Fluorescence was monitored using a Victor^3TM V multilabel counter (PerkinElmer). […]

[2] = system: MMP-9 secreted from HCLE cells; experiment: TNF-alpha induction of MMP-9 secretion from stratified HCLE cells (gelatin zymography); assay type: cell-based, human; conditions: clusterin 50 ug/ml with TNF-alpha 10 ng/ml, 24 hours
Description: (§1) HCLE cells were grown to be confluent in KSFM media and then replenished with DMAM/F12 media to stratify cells for 7 days. To these cells in serum-free DMEM/F12 media, clusterin (50 ug/ml), bovine serum albumin (BSA, 50 ug/ml), and TNF-alpha (10 ng/ml), individually or in combination, were treated for 24 hours. The same volume of supernatants of the cell cultures treated were collected to resolve on SDS/PAGE gel containing gelatin in order to perform gelatin zymography to visualize the presence of MMP-9 secreted from the cells.
as §1, with “cells. […] Therefore, Clusterin inhibits the induction of MMP-9 from human corneal limbal epithelial (HCLE) cells. (See FIG. 10)” for “cells.”

T1 sequence (P33434 110-662): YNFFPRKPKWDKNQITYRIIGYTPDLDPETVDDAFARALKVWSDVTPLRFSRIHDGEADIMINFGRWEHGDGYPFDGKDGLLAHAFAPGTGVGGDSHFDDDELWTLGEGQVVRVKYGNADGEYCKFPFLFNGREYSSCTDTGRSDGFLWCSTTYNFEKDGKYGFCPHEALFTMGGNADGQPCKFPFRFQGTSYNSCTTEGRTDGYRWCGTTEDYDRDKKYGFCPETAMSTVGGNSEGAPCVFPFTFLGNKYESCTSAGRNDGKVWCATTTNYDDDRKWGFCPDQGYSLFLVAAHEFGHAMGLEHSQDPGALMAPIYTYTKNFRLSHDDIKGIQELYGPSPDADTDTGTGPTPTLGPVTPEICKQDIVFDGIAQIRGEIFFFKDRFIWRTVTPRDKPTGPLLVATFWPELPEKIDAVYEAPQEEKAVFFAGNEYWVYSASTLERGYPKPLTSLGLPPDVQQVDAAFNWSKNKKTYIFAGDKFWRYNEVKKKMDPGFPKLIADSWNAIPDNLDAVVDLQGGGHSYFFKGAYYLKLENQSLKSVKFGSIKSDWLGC

- inhibition of MMP-9 catalytic domain activity [1]: 59%
B1: CLU: secreted disulfide-linked heterodimeric glycoprotein (70-80 KD); assays used recombinant mouse CLU with C-terminal (His)6 (protein, UniProt Q06890 22-448, looked up)
Clusterin: EQEVSDNELQELSTQGSRYINKEIQNAVQGVKHIKTLIEKTNAERKSLLNSLEEAKKKKEDALEDTRDSEMKLKAFPEVCNETMMALWEECKPCLKHTCMKFYARVCRSGSGLVGQQLEEFLNQSSPFYFWMNGDRIDSLLESDRQQSQVLDAMQDSFARASGIIDTLFQDRFFARELHDPHYFSPIGFPHKRPHFLYPKSRLVRSLMSPSHYGPPSFHNMFQPFFEMIHQAQQAMDVQLHSPAFQFPDVDFLREGEDDRTVCKEIRRNSTGCLKMKGQCEKCQEILSVDCSTNNPAQANLRQELNDSLQVAERLTEQYKELLQSFQSKMLNTSSLLEQLNDQFNWVSQLANLTQGEDKYYLRVSTVTTHSSDSEVPSRVTEVVVKLFDSDPITVVLPEEVSKDNPKFMDTVAEKALQEYRRKSRAE
modifications: C-terminal His6 tag
- binding of MMP-2 to His-tagged CLU (MMP-2): Though weaker than MMP-9, MMP-2 also had an affinity for CLU
- TNF-induced MMP-9 secretion [2]: inhibited TNF-induced MMP-9 secretion

From patent publication US10398755B2, “Clusterin pharmaceuticals and treatment methods using the same” (UNIVERSITY OF SOUTHERN CALIFORNIA, priority 2009, dated 2019)
